From the supplement of paper PMC10065799, “High-throughput profiling of sequence recognition by tyrosine kinases and SH2 domains using bacterial peptide display” (eLife, 2023)

Biological target: c-Src SH2
Assay: SH2 binding enrichment of the phosphorylated peptide, bacterial display (enrichment ratio); higher = better substrate or ligand; peptides without Tyr show the background
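For SH2 binding enrichment of the phosphorylated peptide, bacterial display in this document: peptide library displayed on the E. coli surface as eCPX fusions, selected cells deep-sequenced, score is each peptide's frequency after selection divided by its frequency in the input.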
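For phosphorylation enrichment, bacterial display in this document: 11-residue human phosphosite peptides and single-mutation variants displayed on the E. coli surface, counted by deep sequencing, each peptide's frequency after selection divided by its frequency in the unselected input library; frequency after pTyr selection over input frequency; kinase dosed for 20-30% of maximal phosphorylation in three min.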

Sequence	SH2 binding enrichment
DDPRTYQKYGY [OAS1_Y362_R361T]	0.598
VPVNGYQPVTA [ROR2_Y824_P828T]	0.6
RSSNTYTLMDV [ALCAM_Y298_T301M]	6.21
EDASEYYENYI [PARP4_Y214_F215Y]	0.582
HSKGIYYVQLE [MGAT4B_Y262_Q257H]	1.31
KYVVVYFRETD [IL17RB_Y447_I451T]	1.7
RELGKYGLQAY [ALDH2_Y497_E496K]	0.455
INNIDYFKNTT [FGFR2_Y656_K659N_YF]	0.36
DMQTLYVNTAA [SMCHD1_Y403]	0.635
SVVAPYEPPEV [TP53_Y220_V218A]	0.762
NKPTVCGVSPN [ABL1_Y226_Y226C]	0.559
RRAKGYPINLF [ITGB2_Y125_D128N_YF]	0.572
CPTIHYNYMCN [TP53_Y234_T230P]	8.28
ISDDKYGRIRL [ARCN1_Y310]	0.434
MECLPYGSLRD [JAK2_Y934_Y931C]	0.467
MPIPMYDASQA [CARMIL1_Y637]	0.537
CTLSVYRQLHN [LUZP1_Y1036]	0.464

Sequence	SH2 binding enrichment
YSKDIYKRVTG [PANK2_Y405_N404I]	0.487
ILGRTHFVNHE [NEDD4_Y627_Y627H_YF]	0.466
VVIMLYGVDSR [PKD1_Y3143_G3139V]	0.645
HHTDEYEYDEL [TGM1_Y134]	0.584
RKPDIYGRLAS [MCM4_Y459_E460G]	1.02
RPGSGYTNIMQ [PKLR_Y564_R569Q]	2.99
YIIFIYAMKKK [SLCO1B1_Y645_L643F]	1.23
LFDPDFMKVIL [CYP4A22_Y104_Y104F_YF]	0.463
SHLSSYTTHPQ [NIPBL_Y195_P192L]	0.482
QEITTYRRLLE [KRT14_Y415_A413T]	0.493
HEKKVYSFCGT [RPS6KA3_Y226_A225V]	0.747
KAFDMYSGDVM [FAM3D_Y122]	0.462
VATRWYQSPEL [CDKL5_Y177_R178Q]	1.16
DNEAIYDICRC [TUBA4A_Y210_R215C]	0.524
YQGGTYSKAST [FGG_Y380]	0.716
DPEATYTTSGS [EPHA2_Y772_G777S]	0.571

Biological target: SHP2-C SH2
Assay: as above

Sequence	SH2 binding enrichment
DDPRTYQKYGY [OAS1_Y362_R361T]	0.833
VPVNGYQPVTA [ROR2_Y824_P828T]	0.635
RSSNTYTLMDV [ALCAM_Y298_T301M]	0.7
EDASEYYENYI [PARP4_Y214_F215Y]	0.589
HSKGIYYVQLE [MGAT4B_Y262_Q257H]	1.76
KYVVVYFRETD [IL17RB_Y447_I451T]	6.88
RELGKYGLQAY [ALDH2_Y497_E496K]	0.564
INNIDYFKNTT [FGFR2_Y656_K659N_YF]	0.692
DMQTLYVNTAA [SMCHD1_Y403]	0.643
SVVAPYEPPEV [TP53_Y220_V218A]	0.59
NKPTVCGVSPN [ABL1_Y226_Y226C]	0.841
RRAKGYPINLF [ITGB2_Y125_D128N_YF]	0.397
CPTIHYNYMCN [TP53_Y234_T230P]	4.49
ISDDKYGRIRL [ARCN1_Y310]	0.639
MECLPYGSLRD [JAK2_Y934_Y931C]	0.468
MPIPMYDASQA [CARMIL1_Y637]	0.75
CTLSVYRQLHN [LUZP1_Y1036]	0.608

Sequence	SH2 binding enrichment
YSKDIYKRVTG [PANK2_Y405_N404I]	0.612
ILGRTHFVNHE [NEDD4_Y627_Y627H_YF]	0.637
VVIMLYGVDSR [PKD1_Y3143_G3139V]	0.826
HHTDEYEYDEL [TGM1_Y134]	0.749
RKPDIYGRLAS [MCM4_Y459_E460G]	0.764
RPGSGYTNIMQ [PKLR_Y564_R569Q]	1.76
YIIFIYAMKKK [SLCO1B1_Y645_L643F]	1.68
LFDPDFMKVIL [CYP4A22_Y104_Y104F_YF]	0.543
SHLSSYTTHPQ [NIPBL_Y195_P192L]	0.575
QEITTYRRLLE [KRT14_Y415_A413T]	0.598
HEKKVYSFCGT [RPS6KA3_Y226_A225V]	0.598
KAFDMYSGDVM [FAM3D_Y122]	0.559
VATRWYQSPEL [CDKL5_Y177_R178Q]	0.955
DNEAIYDICRC [TUBA4A_Y210_R215C]	0.662
YQGGTYSKAST [FGG_Y380]	0.557
DPEATYTTSGS [EPHA2_Y772_G777S]	0.731

Biological target: Grb2 SH2 (UniProt P62993)
Sequence (P62993 whole entry, looked up): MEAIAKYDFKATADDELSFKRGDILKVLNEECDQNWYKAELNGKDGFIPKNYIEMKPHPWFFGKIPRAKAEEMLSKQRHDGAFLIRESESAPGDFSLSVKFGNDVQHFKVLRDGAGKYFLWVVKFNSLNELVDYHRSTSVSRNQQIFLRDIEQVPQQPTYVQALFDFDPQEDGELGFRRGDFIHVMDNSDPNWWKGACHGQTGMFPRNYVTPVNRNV
Assay: as above

Sequence	SH2 binding enrichment
DDPRTYQKYGY [OAS1_Y362_R361T]	0.866
VPVNGYQPVTA [ROR2_Y824_P828T]	0.846
RSSNTYTLMDV [ALCAM_Y298_T301M]	0.78
EDASEYYENYI [PARP4_Y214_F215Y]	0.857
HSKGIYYVQLE [MGAT4B_Y262_Q257H]	1.08
KYVVVYFRETD [IL17RB_Y447_I451T]	2.28
RELGKYGLQAY [ALDH2_Y497_E496K]	1.15
INNIDYFKNTT [FGFR2_Y656_K659N_YF]	0.81
DMQTLYVNTAA [SMCHD1_Y403]	4.57
SVVAPYEPPEV [TP53_Y220_V218A]	0.903
NKPTVCGVSPN [ABL1_Y226_Y226C]	0.952
RRAKGYPINLF [ITGB2_Y125_D128N_YF]	0.868
CPTIHYNYMCN [TP53_Y234_T230P]	1.02
ISDDKYGRIRL [ARCN1_Y310]	0.806
MECLPYGSLRD [JAK2_Y934_Y931C]	0.785
MPIPMYDASQA [CARMIL1_Y637]	0.887
CTLSVYRQLHN [LUZP1_Y1036]	0.655

Sequence	SH2 binding enrichment
YSKDIYKRVTG [PANK2_Y405_N404I]	0.813
ILGRTHFVNHE [NEDD4_Y627_Y627H_YF]	0.899
VVIMLYGVDSR [PKD1_Y3143_G3139V]	0.981
HHTDEYEYDEL [TGM1_Y134]	0.906
RKPDIYGRLAS [MCM4_Y459_E460G]	1.16
RPGSGYTNIMQ [PKLR_Y564_R569Q]	2.13
YIIFIYAMKKK [SLCO1B1_Y645_L643F]	2.31
LFDPDFMKVIL [CYP4A22_Y104_Y104F_YF]	1.06
SHLSSYTTHPQ [NIPBL_Y195_P192L]	0.714
QEITTYRRLLE [KRT14_Y415_A413T]	0.915
HEKKVYSFCGT [RPS6KA3_Y226_A225V]	0.91
KAFDMYSGDVM [FAM3D_Y122]	0.829
VATRWYQSPEL [CDKL5_Y177_R178Q]	0.983
DNEAIYDICRC [TUBA4A_Y210_R215C]	0.932
YQGGTYSKAST [FGG_Y380]	0.846
DPEATYTTSGS [EPHA2_Y772_G777S]	0.873

Biological target: Fes (UniProt P07332)
Sequence (P07332 whole entry, looked up): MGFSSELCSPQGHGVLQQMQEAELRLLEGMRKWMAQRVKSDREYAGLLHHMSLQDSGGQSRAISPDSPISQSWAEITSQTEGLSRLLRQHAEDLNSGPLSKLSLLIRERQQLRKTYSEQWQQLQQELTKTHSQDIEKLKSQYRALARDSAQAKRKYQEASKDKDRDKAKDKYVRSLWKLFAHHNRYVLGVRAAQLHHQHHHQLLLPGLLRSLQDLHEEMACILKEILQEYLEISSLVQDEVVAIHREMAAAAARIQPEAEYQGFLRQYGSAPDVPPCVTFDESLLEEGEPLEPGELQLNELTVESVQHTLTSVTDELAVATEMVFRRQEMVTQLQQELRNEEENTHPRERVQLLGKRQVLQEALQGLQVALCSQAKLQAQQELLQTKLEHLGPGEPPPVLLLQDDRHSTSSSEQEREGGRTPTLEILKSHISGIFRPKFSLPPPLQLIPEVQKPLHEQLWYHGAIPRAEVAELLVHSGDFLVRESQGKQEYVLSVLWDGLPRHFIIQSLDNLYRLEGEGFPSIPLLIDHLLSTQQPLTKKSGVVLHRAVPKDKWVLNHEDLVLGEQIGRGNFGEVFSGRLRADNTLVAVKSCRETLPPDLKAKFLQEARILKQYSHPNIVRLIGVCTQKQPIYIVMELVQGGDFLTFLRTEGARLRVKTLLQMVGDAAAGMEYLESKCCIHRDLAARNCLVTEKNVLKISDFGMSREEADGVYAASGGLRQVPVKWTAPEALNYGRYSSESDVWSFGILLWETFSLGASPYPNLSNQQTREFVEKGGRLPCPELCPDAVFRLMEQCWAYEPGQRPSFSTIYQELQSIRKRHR
Assay: phosphorylation enrichment, bacterial display (enrichment ratio); higher = better substrate or ligand; peptides without Tyr show the background

Sequence	phosphorylation enrichment
DDPRTYQKYGY [OAS1_Y362_R361T]	0.76
VPVNGYQPVTA [ROR2_Y824_P828T]	0.535
RSSNTYTLMDV [ALCAM_Y298_T301M]	0.793
EDASEYYENYI [PARP4_Y214_F215Y]	1.3
HSKGIYYVQLE [MGAT4B_Y262_Q257H]	1.39
KYVVVYFRETD [IL17RB_Y447_I451T]	1.34
RELGKYGLQAY [ALDH2_Y497_E496K]	0.72
INNIDYFKNTT [FGFR2_Y656_K659N_YF]	0.687
DMQTLYVNTAA [SMCHD1_Y403]	0.588
SVVAPYEPPEV [TP53_Y220_V218A]	1.48
NKPTVCGVSPN [ABL1_Y226_Y226C]	0.919
RRAKGYPINLF [ITGB2_Y125_D128N_YF]	0.571
CPTIHYNYMCN [TP53_Y234_T230P]	0.999
ISDDKYGRIRL [ARCN1_Y310]	0.501
MECLPYGSLRD [JAK2_Y934_Y931C]	1.29
MPIPMYDASQA [CARMIL1_Y637]	0.73
CTLSVYRQLHN [LUZP1_Y1036]	1.29

Sequence	phosphorylation enrichment
YSKDIYKRVTG [PANK2_Y405_N404I]	0.51
ILGRTHFVNHE [NEDD4_Y627_Y627H_YF]	0.707
VVIMLYGVDSR [PKD1_Y3143_G3139V]	1.57
HHTDEYEYDEL [TGM1_Y134]	1.59
RKPDIYGRLAS [MCM4_Y459_E460G]	0.807
RPGSGYTNIMQ [PKLR_Y564_R569Q]	0.834
YIIFIYAMKKK [SLCO1B1_Y645_L643F]	0.536
LFDPDFMKVIL [CYP4A22_Y104_Y104F_YF]	2.6
SHLSSYTTHPQ [NIPBL_Y195_P192L]	0.726
QEITTYRRLLE [KRT14_Y415_A413T]	1.11
HEKKVYSFCGT [RPS6KA3_Y226_A225V]	1.03
KAFDMYSGDVM [FAM3D_Y122]	0.732
VATRWYQSPEL [CDKL5_Y177_R178Q]	0.832
DNEAIYDICRC [TUBA4A_Y210_R215C]	1.28
YQGGTYSKAST [FGG_Y380]	0.526
DPEATYTTSGS [EPHA2_Y772_G777S]	0.981
